Results from article PMC9482650, “Quantitative fragmentomics allow affinity mapping of interactomes” (Nature Communications, 2022).
Changes are numbered by the printed parent chain.

B1: ADAM17, P78536 (peptide)
chain: NRVDSKETEC
B2: SCN4A, P35499 (peptide)
chain: VRPGVKESLV
B3: PKN2, Q16513 (peptide)
chain: RDFDYIADWC

What follows are binders tested against HTRA1, Q92743 (assay: holdup assay). Conditions: plain residues with an end cap or a label only (N-terminal biotin on a linker: ado-ado).
Design: key: below the threshold = too weak to quantify, mostly under pKd 3.1 to 4

Chain of HTRA1, Q92743 (Q92743 360-477): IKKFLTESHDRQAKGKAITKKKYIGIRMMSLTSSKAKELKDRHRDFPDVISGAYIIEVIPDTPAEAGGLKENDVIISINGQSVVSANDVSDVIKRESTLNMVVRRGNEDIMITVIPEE

| Binder | pKd |
| --- | --- |
| B1 | 3.56 |
| B2 | 3.89 |
| B3 | 4.72 |

What follows are binders tested against FRMPD3, Q5JV73 (assay: holdup assay). Conditions: plain residues with an end cap or a label only (N-terminal biotin on a linker: ado-ado).
Chain of FRMPD3, Q5JV73 (Q5JV73 12-100): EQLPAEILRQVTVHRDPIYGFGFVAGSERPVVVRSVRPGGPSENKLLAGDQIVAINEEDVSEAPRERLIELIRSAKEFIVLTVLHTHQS
Design: key: below the threshold = too weak to quantify, mostly under pKd 3.1 to 4

| Binder | pKd |
| --- | --- |
| B1 | below the threshold |
| B2 | below the threshold |
| B3 | 3.48 |

What follows are binders tested against MAGI2_4, Q86UL8 (assay: holdup assay). Conditions: plain residues with an end cap or a label only (N-terminal biotin on a linker: ado-ado).
Chain of MAGI2_4, Q86UL8 (Q86UL8 772-865): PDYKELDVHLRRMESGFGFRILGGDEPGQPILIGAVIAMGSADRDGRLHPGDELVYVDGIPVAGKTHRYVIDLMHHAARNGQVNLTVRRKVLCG
Design: key: below the threshold = too weak to quantify, mostly under pKd 3.1 to 4

| Binder | pKd |
| --- | --- |
| B1 | 3.53 |
| B2 | 4.37 |
| B3 | 3.53 |

These binders were tested against T1, PDZD7_3, Q9H5P4 (assay: holdup assay). Conditions: plain residues with an end cap or a label only (N-terminal biotin on a linker: ado-ado).
T1 sequence (Q9H5P4 857-944, limits assumed, looked up): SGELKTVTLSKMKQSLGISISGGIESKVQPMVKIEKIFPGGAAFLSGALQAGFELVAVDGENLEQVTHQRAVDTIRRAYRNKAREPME
Design: key: below the threshold = too weak to quantify, mostly under pKd 3.1 to 4

| Binder | pKd |
| --- | --- |
| B1 | below the threshold |
| B2 | 5.05 |
| B3 | below the threshold |

What follows are binders tested against PDZRN4_1, Q6ZMN7 (assay: holdup assay). Conditions: plain residues with an end cap or a label only (N-terminal biotin on a linker: ado-ado).
Chain of PDZRN4_1, Q6ZMN7 (Q6ZMN7 213-318): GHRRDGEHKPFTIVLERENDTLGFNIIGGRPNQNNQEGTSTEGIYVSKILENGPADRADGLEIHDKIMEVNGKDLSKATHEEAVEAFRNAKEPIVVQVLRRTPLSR
Design: key: below the threshold = too weak to quantify, mostly under pKd 3.1 to 4

| Binder | pKd |
| --- | --- |
| B1 | below the threshold |
| B2 | 4.25 |
| B3 | below the threshold |

These binders were tested against DLG4_2, P78352 (assay: holdup assay). Conditions: plain residues with an end cap or a label only (N-terminal biotin on a linker: ado-ado).
Chain of DLG4_2, P78352 (P78352 155-259): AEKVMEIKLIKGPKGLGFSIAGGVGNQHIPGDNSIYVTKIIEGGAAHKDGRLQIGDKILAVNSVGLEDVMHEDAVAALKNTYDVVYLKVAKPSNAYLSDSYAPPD
Design: key: below the threshold = too weak to quantify, mostly under pKd 3.1 to 4

| Binder | pKd |
| --- | --- |
| B1 | 4.34 |
| B2 | 5.71 |
| B3 | below the threshold |

Each binder was assayed against T2, LIN7C, Q9NUP9 (assay: holdup assay). Conditions: plain residues with an end cap or a label only (N-terminal biotin on a linker: ado-ado).
T2 sequence (Q9NUP9 88-185, limits assumed, looked up): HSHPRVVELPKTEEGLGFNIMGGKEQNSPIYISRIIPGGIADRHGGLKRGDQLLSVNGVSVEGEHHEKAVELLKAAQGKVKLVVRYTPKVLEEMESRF
Design: key: below the threshold = too weak to quantify, mostly under pKd 3.1 to 4

| Binder | pKd |
| --- | --- |
| B1 | 3.81 |
| B2 | 4.38 |
| B3 | below the threshold |

What follows are binders tested against Inadl_10, Q8NI35 (assay: holdup assay). Conditions: plain residues with an end cap or a label only (N-terminal biotin on a linker: ado-ado).
Chain of Inadl_10, Q8NI35 (Q8NI35 1673-1763): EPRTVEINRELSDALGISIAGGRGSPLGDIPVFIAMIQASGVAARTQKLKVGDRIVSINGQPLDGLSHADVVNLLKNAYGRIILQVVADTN
Design: key: below the threshold = too weak to quantify, mostly under pKd 3.1 to 4

| Binder | pKd |
| --- | --- |
| B1 | below the threshold |
| B2 | below the threshold |
| B3 | below the threshold |

What follows are binders tested against ARHGEF12, Q9NZN5-2 (assay: holdup assay). Conditions: plain residues with an end cap or a label only (N-terminal biotin on a linker: ado-ado).
Chain of ARHGEF12, Q9NZN5-2 (Q9NZN5 other isoform, or with tags, fused parts or gaps): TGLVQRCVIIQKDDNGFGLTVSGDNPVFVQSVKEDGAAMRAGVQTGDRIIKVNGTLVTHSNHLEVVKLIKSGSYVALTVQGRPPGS
Design: key: below the threshold = too weak to quantify, mostly under pKd 3.1 to 4

| Binder | pKd |
| --- | --- |
| B1 | 3.95 |
| B2 | below the threshold |
| B3 | below the threshold |

What follows are binders tested against IL16_1, Q14005 (assay: holdup assay). Conditions: plain residues with an end cap or a label only (N-terminal biotin on a linker: ado-ado).
Chain of IL16_1, Q14005 (Q14005 210-306): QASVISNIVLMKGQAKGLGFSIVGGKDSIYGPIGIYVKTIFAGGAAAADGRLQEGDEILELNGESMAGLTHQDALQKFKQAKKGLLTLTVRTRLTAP
Design: key: below the threshold = too weak to quantify, mostly under pKd 3.1 to 4

| Binder | pKd |
| --- | --- |
| B1 | below the threshold |
| B2 | 4.78 |
| B3 | below the threshold |

These binders were tested against LAP2, Q96RT1 (assay: holdup assay). Conditions: plain residues with an end cap or a label only (N-terminal biotin on a linker: ado-ado).
Chain of LAP2, Q96RT1 (Q96RT1 other isoform, or with tags, fused parts or gaps): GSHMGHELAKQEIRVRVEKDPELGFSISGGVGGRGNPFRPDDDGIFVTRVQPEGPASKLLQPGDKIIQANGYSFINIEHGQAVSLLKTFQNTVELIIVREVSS
Design: key: below the threshold = too weak to quantify, mostly under pKd 3.1 to 4

| Binder | pKd |
| --- | --- |
| B1 | below the threshold |
| B2 | 3.99 |
| B3 | 4.01 |

Each binder was assayed against T3, HTRA3, P83110 (assay: holdup assay). Conditions: plain residues with an end cap or a label only (N-terminal biotin on a linker: ado-ado).
T3 sequence (P83110 354-453, limits assumed, looked up): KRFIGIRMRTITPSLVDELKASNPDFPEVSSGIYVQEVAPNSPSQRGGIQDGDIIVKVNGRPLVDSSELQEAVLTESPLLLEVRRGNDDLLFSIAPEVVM
Design: key: below the threshold = too weak to quantify, mostly under pKd 3.1 to 4

| Binder | pKd |
| --- | --- |
| B1 | 3.65 |
| B2 | below the threshold |
| B3 | 5.86 |

The binders below were run against LDB3, O75112 (assay: holdup assay). Conditions: plain residues with an end cap or a label only (N-terminal biotin on a linker: ado-ado).
Chain of LDB3, O75112 (O75112 1-94): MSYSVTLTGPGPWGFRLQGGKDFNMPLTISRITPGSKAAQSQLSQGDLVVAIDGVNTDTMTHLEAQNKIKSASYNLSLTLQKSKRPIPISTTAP
Design: key: below the threshold = too weak to quantify, mostly under pKd 3.1 to 4

| Binder | pKd |
| --- | --- |
| B1 | below the threshold |
| B2 | below the threshold |
| B3 | below the threshold |

What follows are binders tested against PDLIM1, O00151 (assay: holdup assay). Conditions: plain residues with an end cap or a label only (N-terminal biotin on a linker: ado-ado).
Chain of PDLIM1, O00151 (O00151 1-87): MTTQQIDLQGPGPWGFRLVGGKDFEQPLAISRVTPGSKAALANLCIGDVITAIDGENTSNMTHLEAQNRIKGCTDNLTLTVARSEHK
Design: key: below the threshold = too weak to quantify, mostly under pKd 3.1 to 4

| Binder | pKd |
| --- | --- |
| B1 | below the threshold |
| B2 | below the threshold |
| B3 | below the threshold |

Each binder was assayed against DLG4_3, P78352 (assay: holdup assay). Conditions: plain residues with an end cap or a label only (N-terminal biotin on a linker: ado-ado).
Chain of DLG4_3, P78352 (P78352 306-403): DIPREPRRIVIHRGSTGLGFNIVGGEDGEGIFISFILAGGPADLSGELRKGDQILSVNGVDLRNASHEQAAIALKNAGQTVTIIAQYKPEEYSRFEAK
Design: key: below the threshold = too weak to quantify, mostly under pKd 3.1 to 4

| Binder | pKd |
| --- | --- |
| B1 | 4.42 |
| B2 | 4.39 |
| B3 | below the threshold |

What follows are binders tested against LNX1_3, Q8TBB1 (assay: holdup assay). Conditions: plain residues with an end cap or a label only (N-terminal biotin on a linker: ado-ado).
Chain of LNX1_3, Q8TBB1 (Q8TBB1 500-596): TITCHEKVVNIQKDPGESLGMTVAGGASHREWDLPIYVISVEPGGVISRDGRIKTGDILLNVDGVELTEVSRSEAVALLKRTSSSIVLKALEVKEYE
Design: key: below the threshold = too weak to quantify, mostly under pKd 3.1 to 4

| Binder | pKd |
| --- | --- |
| B1 | below the threshold |
| B2 | below the threshold |
| B3 | below the threshold |

What follows are binders tested against T4, LIN7B, Q9HAP6 (assay: holdup assay). Conditions: plain residues with an end cap or a label only (N-terminal biotin on a linker: ado-ado).
T4 sequence (Q9HAP6 88-185, limits assumed, looked up): T2 sequence (Q9NUP9 88-185, limits assumed, looked up) with S2A, E13D, I35V, I40V, H65Q, K79S, K89R, S96A
Design: key: below the threshold = too weak to quantify, mostly under pKd 3.1 to 4

| Binder | pKd |
| --- | --- |
| B1 | 4.05 |
| B2 | 4.04 |
| B3 | 3.9 |

Each binder was assayed against T5, NHERF3_3, Q5T2W1 (assay: holdup assay). Conditions: plain residues with an end cap or a label only (N-terminal biotin on a linker: ado-ado).
T5 sequence (Q5T2W1 238-333, limits assumed, looked up): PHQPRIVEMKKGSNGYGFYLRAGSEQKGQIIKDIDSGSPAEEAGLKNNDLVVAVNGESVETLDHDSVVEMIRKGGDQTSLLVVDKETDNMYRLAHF
Design: key: below the threshold = too weak to quantify, mostly under pKd 3.1 to 4

| Binder | pKd |
| --- | --- |
| B1 | below the threshold |
| B2 | below the threshold |
| B3 | below the threshold |

What follows are binders tested against GRIP2_7, Q9C0E4 (assay: holdup assay). Conditions: plain residues with an end cap or a label only (N-terminal biotin on a linker: ado-ado).
Chain of GRIP2_7, Q9C0E4 (Q9C0E4 934-1023): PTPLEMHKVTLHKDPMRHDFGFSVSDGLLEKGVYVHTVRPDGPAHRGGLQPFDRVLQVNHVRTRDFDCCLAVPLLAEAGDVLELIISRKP
Design: key: below the threshold = too weak to quantify, mostly under pKd 3.1 to 4

| Binder | pKd |
| --- | --- |
| B1 | below the threshold |
| B2 | below the threshold |
| B3 | below the threshold |

The binders below were run against MAGI2_3, Q86UL8 (assay: holdup assay). Conditions: plain residues with an end cap or a label only (N-terminal biotin on a linker: ado-ado).
Chain of MAGI2_3, Q86UL8 (Q86UL8 600-682): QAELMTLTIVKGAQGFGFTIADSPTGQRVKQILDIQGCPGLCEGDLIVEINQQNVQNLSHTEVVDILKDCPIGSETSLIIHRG
Design: key: below the threshold = too weak to quantify, mostly under pKd 3.1 to 4

| Binder | pKd |
| --- | --- |
| B1 | 3.64 |
| B2 | 4.51 |
| B3 | below the threshold |

Each binder was assayed against IL16_4, Q14005 (assay: holdup assay). Conditions: plain residues with an end cap or a label only (N-terminal biotin on a linker: ado-ado).
Chain of IL16_4, Q14005 (Q14005 1229-1329): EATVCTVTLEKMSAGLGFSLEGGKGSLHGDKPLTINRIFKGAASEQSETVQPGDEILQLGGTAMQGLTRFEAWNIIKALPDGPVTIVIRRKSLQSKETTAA
Design: key: below the threshold = too weak to quantify, mostly under pKd 3.1 to 4

| Binder | pKd |
| --- | --- |
| B1 | 3.6 |
| B2 | below the threshold |
| B3 | below the threshold |

These binders were tested against T6, MPDZ_5, O75970 (assay: holdup assay). Conditions: plain residues with an end cap or a label only (N-terminal biotin on a linker: ado-ado).
T6 sequence (O75970 695-796, limits assumed, looked up): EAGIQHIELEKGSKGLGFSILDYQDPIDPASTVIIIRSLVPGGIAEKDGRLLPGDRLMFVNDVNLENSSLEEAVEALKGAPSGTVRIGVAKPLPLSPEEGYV
Design: key: below the threshold = too weak to quantify, mostly under pKd 3.1 to 4

| Binder | pKd |
| --- | --- |
| B1 | below the threshold |
| B2 | below the threshold |
| B3 | below the threshold |

Each binder was assayed against DLG1_1, Q12959 (assay: holdup assay). Conditions: plain residues with an end cap or a label only (N-terminal biotin on a linker: ado-ado).
Design: key: below the threshold = too weak to quantify, mostly under pKd 3.1 to 4

| Binder | pKd |
| --- | --- |
| B1 | 4.32 |
| B2 | 4.71 |
| B3 | below the threshold |

These binders were tested against T7, GRIP1_4, Q9Y3R0 (assay: holdup assay). Conditions: plain residues with an end cap or a label only (N-terminal biotin on a linker: ado-ado).
T7 sequence (Q9Y3R0 467-571, limits assumed, looked up): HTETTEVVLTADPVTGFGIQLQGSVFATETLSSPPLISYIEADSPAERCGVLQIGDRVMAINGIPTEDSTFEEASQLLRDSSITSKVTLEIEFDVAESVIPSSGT
Design: key: below the threshold = too weak to quantify, mostly under pKd 3.1 to 4

| Binder | pKd |
| --- | --- |
| B1 | below the threshold |
| B2 | below the threshold |
| B3 | below the threshold |

These binders were tested against T8, APBA3_1, O96018 (assay: holdup assay). Conditions: plain residues with an end cap or a label only (N-terminal biotin on a linker: ado-ado).
T8 sequence (O96018 389-490, limits assumed, looked up): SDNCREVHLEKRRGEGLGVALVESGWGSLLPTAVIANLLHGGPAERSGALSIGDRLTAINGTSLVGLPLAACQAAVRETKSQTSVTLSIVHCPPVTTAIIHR
Design: key: below the threshold = too weak to quantify, mostly under pKd 3.1 to 4

| Binder | pKd |
| --- | --- |
| B1 | below the threshold |
| B2 | below the threshold |
| B3 | below the threshold |

Each binder was assayed against AHNAK1, Q09666 (assay: holdup assay). Conditions: plain residues with an end cap or a label only (N-terminal biotin on a linker: ado-ado).
Chain of AHNAK1, Q09666 (Q09666 4-100): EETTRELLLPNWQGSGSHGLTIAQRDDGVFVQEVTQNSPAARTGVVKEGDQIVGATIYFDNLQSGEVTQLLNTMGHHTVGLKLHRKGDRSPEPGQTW
Design: key: below the threshold = too weak to quantify, mostly under pKd 3.1 to 4

| Binder | pKd |
| --- | --- |
| B1 | below the threshold |
| B2 | below the threshold |
| B3 | below the threshold |

What follows are binders tested against T9, APBA2_2, Q99767 (assay: holdup assay). Conditions: plain residues with an end cap or a label only (N-terminal biotin on a linker: ado-ado).
T9 sequence (Q99767 654-744, limits assumed, looked up): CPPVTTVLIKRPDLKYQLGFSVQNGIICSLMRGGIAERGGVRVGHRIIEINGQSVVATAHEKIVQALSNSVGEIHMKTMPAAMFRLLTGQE
Design: key: below the threshold = too weak to quantify, mostly under pKd 3.1 to 4

| Binder | pKd |
| --- | --- |
| B1 | below the threshold |
| B2 | below the threshold |
| B3 | below the threshold |

The binders below were run against DLG2_2, Q15700 (assay: holdup assay). Conditions: plain residues with an end cap or a label only (N-terminal biotin on a linker: ado-ado).
Chain of DLG2_2, Q15700 (Q15700 189-283): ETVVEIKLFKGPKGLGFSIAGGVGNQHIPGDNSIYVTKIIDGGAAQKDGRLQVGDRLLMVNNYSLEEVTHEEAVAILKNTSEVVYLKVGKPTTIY
Design: key: below the threshold = too weak to quantify, mostly under pKd 3.1 to 4

| Binder | pKd |
| --- | --- |
| B1 | 4.25 |
| B2 | 5.23 |
| B3 | below the threshold |

The binders below were run against Inadl_5, Q8NI35 (assay: holdup assay). Conditions: plain residues with an end cap or a label only (N-terminal biotin on a linker: ado-ado).
Chain of Inadl_5, Q8NI35 (Q8NI35 673-780): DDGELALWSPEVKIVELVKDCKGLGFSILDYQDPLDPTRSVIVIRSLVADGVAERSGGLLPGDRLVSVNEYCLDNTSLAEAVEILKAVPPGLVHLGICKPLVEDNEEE
Design: key: below the threshold = too weak to quantify, mostly under pKd 3.1 to 4

| Binder | pKd |
| --- | --- |
| B1 | below the threshold |
| B2 | below the threshold |
| B3 | below the threshold |
